How the values were obtained:
Assay in all cases: steady-state single-nucleotide gap-filling, FAM-primer urea-PAGE, Michaelis-Menten fit
Conditions in all cases: 1 µM gap-filling DNA (continuous template), 5 nM enzyme, 5 mM MgCl2, pH 7.5, 27°C
[1] = substrate: Nc1nc2c(ncn2[C@H]2C[C@H](O)[C@@H](COP(=O)(O)OP(=O)(O)OP(=O)(O)O)O2)c(=O)[nH]1; assay type: biochemical, Homo sapiens
Source text: steady-state single-nucleotide gap-filling, FAM-primer urea-PAGE, Michaelis-Menten fit on Polλxt | all mutants underwent steady-state characterization in gap-filling context (Fig. 4B and C)

[2] = substrate: Nc1nc2c(ncn2[C@H]2C[C@H](O)[C@@H](COP(=O)(O)OP(=O)(O)OP(=O)(O)O)O2)c(=O)[nH]1; assay type: biochemical, Homo sapiens; remark: listed apart in the source
Source text: steady-state single-nucleotide gap-filling, FAM-primer urea-PAGE, Michaelis-Menten fit on Polλxt | despite an almost normal KM in the […] range

[3] = substrate: Nc1nc2c(ncn2[C@H]2C[C@H](O)[C@@H](COP(=O)(O)OP(=O)(O)OP(=O)(O)O)O2)c(=O)[nH]1; assay type: biochemical, Homo sapiens; remark: listed apart in the source
[4] = substrate: Nc1nc2c(ncn2[C@H]2C[C@H](O)[C@@H](COP(=O)(O)OP(=O)(O)OP(=O)(O)O)O2)c(=O)[nH]1; assay type: biochemical, Paramecium

B1: Polλxt (Homo sapiens; C543A/DEL464-472/INS464KGET) (protein)
chain: AQPSSQKATNHNLHITEKLEVLAKAYSVQGDKWRALGYAKAINALKSFHKPVTSYQEACSIPGIGKRMAEKIIEILESGHLRKLDHISESVPVLELFSNIWGAGTKTAQMWYQQGFRSLEDIRSQASLTTQQAIGLKHYSDFLERMPREEATEIEQTVQKAAQAFNSGLLCVACGSYRRGKATCGDVDVLITHPDGRSHRGIFSRLLDSLRQEGFLTDDLVSKGETYLGVCRLPGPGRRHRRLDIIVVPYSEFACALLYFTGSAHFNRSMRALAKTKGMSLSEHALSTAVVRNTHGAKVGPGRVLPTPTEKDVFRLLGLPYREPAERDW
notes: Δ1-241; Loop1 residues 464-472 replaced by KGET of Polβ; cleavable N-terminal 14-His tag; E. coli
In the case of B1, the Km [1] is reported as 1893 (949.4 - 4602.0) nM.

B2: Polλxt (Homo sapiens; C543A/DEL464-472/H530Y/I492R/INS464KGET/S528N) (protein)
chain: AQPSSQKATNHNLHITEKLEVLAKAYSVQGDKWRALGYAKAINALKSFHKPVTSYQEACSIPGIGKRMAEKIIEILESGHLRKLDHISESVPVLELFSNIWGAGTKTAQMWYQQGFRSLEDIRSQASLTTQQAIGLKHYSDFLERMPREEATEIEQTVQKAAQAFNSGLLCVACGSYRRGKATCGDVDVLITHPDGRSHRGIFSRLLDSLRQEGFLTDDLVSKGETYLGVCRLPGPGRRHRRLDIRVVPYSEFACALLYFTGSAHFNRSMRALAKTKGMSLNEYALSTAVVRNTHGAKVGPGRVLPTPTEKDVFRLLGLPYREPAERDW
notes: as for B1
With B2 the Km [2] was 849.9 (587.8 - 1277.0) nM.

B3: Polλxt (Homo sapiens; C543A/DEL464-472/I492K/INS464KGET) (protein)
chain: AQPSSQKATNHNLHITEKLEVLAKAYSVQGDKWRALGYAKAINALKSFHKPVTSYQEACSIPGIGKRMAEKIIEILESGHLRKLDHISESVPVLELFSNIWGAGTKTAQMWYQQGFRSLEDIRSQASLTTQQAIGLKHYSDFLERMPREEATEIEQTVQKAAQAFNSGLLCVACGSYRRGKATCGDVDVLITHPDGRSHRGIFSRLLDSLRQEGFLTDDLVSKGETYLGVCRLPGPGRRHRRLDIKVVPYSEFACALLYFTGSAHFNRSMRALAKTKGMSLSEHALSTAVVRNTHGAKVGPGRVLPTPTEKDVFRLLGLPYREPAERDW
notes: as for B1
In the case of B3, the Km [3] is reported as 494.7 (237.7 - 937.3) nM.

B4: Polλxt (Homo sapiens; C543A/DEL464-472/E529D/I492K/INS464KGET) (protein)
chain: AQPSSQKATNHNLHITEKLEVLAKAYSVQGDKWRALGYAKAINALKSFHKPVTSYQEACSIPGIGKRMAEKIIEILESGHLRKLDHISESVPVLELFSNIWGAGTKTAQMWYQQGFRSLEDIRSQASLTTQQAIGLKHYSDFLERMPREEATEIEQTVQKAAQAFNSGLLCVACGSYRRGKATCGDVDVLITHPDGRSHRGIFSRLLDSLRQEGFLTDDLVSKGETYLGVCRLPGPGRRHRRLDIKVVPYSEFACALLYFTGSAHFNRSMRALAKTKGMSLSDHALSTAVVRNTHGAKVGPGRVLPTPTEKDVFRLLGLPYREPAERDW
notes: as for B1
For B4, the Km [4] was 399.3 (247.1 - 607.0) nM.
